Results published in patent publication US20170165338A1.

Biological target: HLA-A*02 (human)
Test: UV-exchange b2m ELISA

| Binder | peptide exchange yield |
| --- | --- |
| ILNTHITEL | 50 to 75% |
| MLAGIAITV | 50 to 75% |
| ILGDLSHLL | 50 to 75% |
| VLYDRPLKI | 50 to 75% |
| FISERVEVV | > 75% |
| ALHFSEDEI | 20 to 49% |
| KLQNIMMLL | 20 to 49% |
| ALLAFFPGL | 50 to 75% |
| RLLGTEFQV | 50 to 75% |
| ALLPELREV | 50 to 75% |
| LLNPVVEFV | 50 to 75% |
| YLMDDTVEI | > 75% |
| ILVEGISTV | 50 to 75% |
| YLWATIQRI | 50 to 75% |
| AILAHLNTV | > 75% |
| MMVGDLLEV | 50 to 75% |
| SVLDSTAKV | 20 to 49% |
| TLTSLLAQA | 50 to 75% |
| KIIDFLSAL | 50 to 75% |

Biological target: HLA-A*24 (human)
Test: UV-exchange b2m ELISA

| Binder | peptide exchange yield |
| --- | --- |
| VYPWLGALL | > 75% |
| IYQLDTASI | 50 to 75% |
| IYDDSFIRPVTF | 50 to 75% |
| LYLDIINLF | > 75% |
| IFPQFLYQF | > 75% |
| VFQNFPLLF | > 75% |
| MYDSYWRQF | > 75% |
| IYKVGAPTI | 50 to 75% |
| TYTTVPRVAF | > 75% |
| IFIEVFSHF | 50 to 75% |
| VFTSTARAF | 50 to 75% |
